In US20190322748A1:

Tests used:
[1] = molecular target: Tim3-ECD-His-Biotin (human) (UniProt Q8TDQ0); assay: ELISA on human Tim3
[2] = molecular target: full-length human Tim3 on cells (CHO-K1 stably transfected with plasmid 15312_hTIM3-fl_pUC_Neo) (human) (UniProt Q8TDQ0); assay: cell-based or functional assay
[3] = molecular target: monomeric cyno Tim3-ECD (cynomolgus); assay: ELISA on cynomolgus Tim3
[4] = molecular target: full-length human Tim3 on cells (CHO-K1 stably transfected with plasmid 15312_hTIM3-fl_pUC_Neo) (human) (UniProt Q8TDQ0); assay: cellular ELISA on CHO-TIM3
[5] = molecular target: monomeric cyno Tim3-ECD (cynomolgus); assay: SPR BIAcore B4000, Ab captured on anti-mouse IgG, 25 C
[6] = molecular target: monomeric human Tim3-ECD (human) (UniProt Q8TDQ0); assay: as above
[7] = molecular target: Tim3-ECD-His-Biotin (human) (UniProt Q8TDQ0); assay: ELISA on human Tim3 (values in relation to the samples max value)
[8] = molecular target: monomeric cyno Tim3-ECD (cynomolgus); assay: ELISA on cynomolgus Tim3 (values in relation to the samples max value)
[9] = molecular target: full-length human Tim3 on cells (CHO-K1 stably transfected with plasmid 15312_hTIM3-fl_pUC_Neo) (human) (UniProt Q8TDQ0); assay: cellular ELISA on CHO-TIM3 (values in relation to the samples max value)
[10] = molecular target: huFc fused dimeric human Tim3-ECD (human) (UniProt Q8TDQ0); assay: SPR BIAcore B4000, Ab captured on anti-mouse IgG, 25 C, dimeric antigen (avidity)

## Reference antibody Biolegend F38-2E2
[1]
  Inflexion point: 88.3 ng/mL
[2]
  IFN-gamma release in MLR at 1 µg/ml antibody, % of rec hu IL-2 (20 EU/ml) = 100%: 7%
  IFN-gamma release in MLR at 10 µg/ml antibody, % of rec hu IL-2 (20 EU/ml) = 100%: 26%
  IFN-gamma release in MLR at 40 µg/ml antibody, % of rec hu IL-2 (20 EU/ml) = 100%: 36%
[3]
  Inflexion point: 210000 ng/mL
[4]
  Inflexion point: 224 ng/mL
[5]
  Kd: 168 nM
[6]
  Kd: 13.6 nM
[7]
  EC50: 0.0732 µg/mL
[8]
  EC50: 0.423 µg/mL
[9]
  EC50: 0.15 µg/mL
[10]
  Kd: 7.5 nM
